Consider six substances from patent publication US20210087271A1.

Test [1] addresses C1q (UniProt P02745). The test is described as follows: flow cytometry; antibody on CD3 peptide-coated SA Dyna Beads incubated with C1q.
Test [2] addresses C1q (UniProt P02745). The test is described as follows: SPR Biacore 8K; IgG captured on biotinylated CD3 peptide SA chip; 1 µM C1q, pH 7.4.
In the next test the target is FcRn (UniProt P55899). The test is described as follows: SPR Biacore 8K; IgG captured on biotinylated CD3 peptide SA chip; 1 µM FcRn, pH 6.0. For orientation: In SPR one partner is held on a chip, and binding of the other changes the refractive index at the surface.
For test [3], the target named is FcγRIIA (human) (UniProt P12318). Briefly: SPR Biacore 8K; IgG captured on biotinylated CD3 peptide SA chip; 1 µM FcγRIIA, pH 7.4.
Test [4] has as its target FcγRI (human) (UniProt P12314). Briefly: SPR Biacore 8K; IgG captured on biotinylated CD3 peptide SA chip; 100 nM FcγRI, pH 7.4.
The next test addresses FcγRIIIA (human) (UniProt P08637). Briefly: SPR Biacore 8K; IgG captured on biotinylated CD3 peptide SA chip; 1 µM FcγRIIIA, pH 7.4.
The next test deals with FcγR on THP-1 cells. The test is described as follows: flow cytometry; 100 nM antibody pre-complexed with 10 nM biotinylated CD3 peptide, on THP-1 cells. For orientation: In flow cytometry, cells or beads pass a laser one at a time.
Test [5] has as its target FcγRI (human) (UniProt P12314). The test is described as follows: SPR Biacore 8K, response vs WT.
In test [6] the target is FcγRIIA (human) (UniProt P12318). Briefly: SPR Biacore 8K, response vs WT.
In the next test the target is CD3. Briefly: BLI ForteBio; IgG on AHQ sensor, 100 nM antigen, 1:1 model. (Biolayer interferometry detects binding as a change in optical thickness at a sensor tip.)

Values joined by “and” are separate entries in the source; they are usually repeats but may differ in a detail not shown here. Equal entries are not always repeated.

By Kd is commonly meant a measure of binding affinity in units of concentration.

Chain of UniProt P08637 (P08637 17-208 limits assumed): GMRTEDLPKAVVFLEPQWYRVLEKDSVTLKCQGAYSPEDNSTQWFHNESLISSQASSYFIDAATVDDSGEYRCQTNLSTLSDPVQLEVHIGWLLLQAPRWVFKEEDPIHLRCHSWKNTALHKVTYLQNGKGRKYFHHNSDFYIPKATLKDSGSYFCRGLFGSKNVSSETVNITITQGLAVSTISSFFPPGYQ
Chain of UniProt P55899 (P55899 24-297 limits assumed, chain 1 of 2): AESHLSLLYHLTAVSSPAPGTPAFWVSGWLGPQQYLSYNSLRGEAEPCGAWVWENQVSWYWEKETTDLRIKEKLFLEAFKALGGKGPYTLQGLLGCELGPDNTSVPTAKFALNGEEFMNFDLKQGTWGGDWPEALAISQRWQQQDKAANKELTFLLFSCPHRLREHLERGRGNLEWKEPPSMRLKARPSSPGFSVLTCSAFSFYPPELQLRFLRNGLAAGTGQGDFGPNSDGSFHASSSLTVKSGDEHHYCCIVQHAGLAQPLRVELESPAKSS
Chain of UniProt P55899 (P61769 21-119 limits assumed, chain 2 of 2, further chain): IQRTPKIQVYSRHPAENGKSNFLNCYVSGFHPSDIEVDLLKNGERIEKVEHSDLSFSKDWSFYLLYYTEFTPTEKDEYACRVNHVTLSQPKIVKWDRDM
Chain of UniProt P02745 (P02745 23-245 limits assumed, chain 1 of 3): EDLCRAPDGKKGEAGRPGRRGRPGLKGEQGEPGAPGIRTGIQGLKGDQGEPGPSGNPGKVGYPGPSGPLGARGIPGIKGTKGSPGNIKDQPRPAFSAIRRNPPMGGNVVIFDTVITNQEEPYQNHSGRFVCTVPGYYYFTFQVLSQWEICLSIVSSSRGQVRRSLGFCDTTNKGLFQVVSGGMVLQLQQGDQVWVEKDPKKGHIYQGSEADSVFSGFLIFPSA
Chain of UniProt P02745 (P02746 28-253 limits assumed, chain 2 of 3, further chain): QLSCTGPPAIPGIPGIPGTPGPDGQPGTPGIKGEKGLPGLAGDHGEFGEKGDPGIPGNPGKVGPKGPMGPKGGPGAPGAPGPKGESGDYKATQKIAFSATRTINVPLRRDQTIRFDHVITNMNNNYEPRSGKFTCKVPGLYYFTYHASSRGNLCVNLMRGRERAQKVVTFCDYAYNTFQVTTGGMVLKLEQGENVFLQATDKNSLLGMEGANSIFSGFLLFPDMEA
Chain of UniProt P02745 (P02747 29-245 limits assumed, chain 3 of 3, further chain): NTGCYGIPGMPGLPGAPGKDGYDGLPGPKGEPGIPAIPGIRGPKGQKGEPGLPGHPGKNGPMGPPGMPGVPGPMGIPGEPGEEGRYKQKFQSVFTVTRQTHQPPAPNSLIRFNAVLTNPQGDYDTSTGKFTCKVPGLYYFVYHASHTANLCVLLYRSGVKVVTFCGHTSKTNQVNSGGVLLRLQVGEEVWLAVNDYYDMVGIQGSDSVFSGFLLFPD
Chain of UniProt P12318 (P12318 36-218 limits assumed): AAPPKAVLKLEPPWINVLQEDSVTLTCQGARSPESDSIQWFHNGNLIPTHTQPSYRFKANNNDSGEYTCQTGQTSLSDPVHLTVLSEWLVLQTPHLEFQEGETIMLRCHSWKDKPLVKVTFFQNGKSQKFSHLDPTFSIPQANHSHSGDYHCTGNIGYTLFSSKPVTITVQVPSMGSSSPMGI
Chain of UniProt P12314 (P12314 16-288 limits assumed): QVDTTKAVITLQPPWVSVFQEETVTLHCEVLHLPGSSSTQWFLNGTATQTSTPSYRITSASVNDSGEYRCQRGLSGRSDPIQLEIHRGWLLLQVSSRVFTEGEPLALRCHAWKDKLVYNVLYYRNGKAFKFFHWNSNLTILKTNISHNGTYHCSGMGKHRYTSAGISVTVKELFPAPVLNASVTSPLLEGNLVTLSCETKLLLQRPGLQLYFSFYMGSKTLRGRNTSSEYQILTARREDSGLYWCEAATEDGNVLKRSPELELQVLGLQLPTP

In the test with C1q [1], “LALA variant of the CD3 antibody (WT engineered to contain L234A and L235A) (from UniProt P01857 1-330)” yielded a C1q Binding (MFI) of 1980 MFI. For the same substance, the late association response (RU) in the test with C1q [2] is -13.9 RU; in the test with FcRn it was 44 RU; with FcγRIIA (human) [3], 0.1 RU; with FcγRI (human) [4], 23.5 RU; with FcγRIIIA (human) it was 0.6 RU. Also, the THP-1 Binding (MFI) with FcγR on THP-1 cells was 5270 MFI.
Turning to “LALA-PG variant of the CD3 antibody (WT engineered to contain L234A and L235A and P329G) (from UniProt P01857 1-330)”, the C1q Binding (MFI) with C1q [1] came to 676 MFI. Besides, the late association response (RU) in the test with C1q [2] was -25.1 RU; with FcRn, 44.5 RU; in the test with FcγRIIA (human) [3] it was -0.1 RU; in the test with FcγRI (human) [4] it was 2 RU; with FcγRIIIA (human) it was -0.3 RU. In addition, the THP-1 Binding (MFI) with FcγR on THP-1 cells came out at 146 MFI.
As for “LALE-PG variant of the CD3 antibody (WT engineered to contain L234A and L235E and P329G) (from UniProt P01857 1-330)”, the % reduction of binding compared to WT was determined as 99.1% in the test with FcγRI (human) [5] and 100% with FcγRIIA (human) [6]. Also, in the test with C1q [1], the C1q Binding (MFI) turned out to be 865 MFI. Further, the late association response (RU) with C1q [2] is -6.5 RU; in the test with FcRn, 37.3 RU; in the test with FcγRIIA (human) [3] it was 0 RU; with FcγRI (human) [4] it was 0.8 RU; in the test with FcγRIIIA (human), -0.3 RU. In the test with FcγR on THP-1 cells, this substance registered a THP-1 Binding (MFI) of 124 MFI.
For “LALE-PA variant of the CD3 antibody (WT engineered to contain L234A and L235E and P329A) (from UniProt P01857 1-330)”, in the test with C1q [1], the C1q Binding (MFI) worked out at 660 MFI. For the same substance, the late association response (RU) in the test with C1q [2] was -23.3 RU; with FcRn, 38.1 RU; in the test with FcγRIIA (human) [3], -0.1 RU; in the test with FcγRI (human) [4] it was 0.8 RU; with FcγRIIIA (human), -0.1 RU. Besides, in the test with FcγR on THP-1 cells, the THP-1 Binding (MFI) worked out at 124 MFI.
“LALE variant of the CD3 antibody (WT engineered to contain L234A and L235E) (from UniProt P01857 1-330)”: in the test with C1q [1], the C1q Binding (MFI) worked out at 1790 MFI. Also, the late association response (RU) with C1q [2] is -27.3 RU; with FcRn it was 38.9 RU; with FcγRIIA (human) [3] it was 0.1 RU; with FcγRIIIA (human), 0.4 RU. The same substance showed a THP-1 Binding (MFI) with FcγR on THP-1 cells of 5300 MFI.
As to “LALA-PA variant of the CD3 antibody (WT engineered to contain L234A and L235A and P329A) (from UniProt P01857 1-330)”, the % reduction of binding compared to WT is > 95% and 97.6% with FcγRI (human) [5]; > 95% and 100% with FcγRIIA (human) [6]. Also, the dissociation constant (Kd) in the test with CD3 came to 3.9 nM. For the same substance, the C1q Binding (MFI) in the test with C1q [1] came out at 621 MFI. Further, the late association response (RU) is -3.3 RU with C1q [2], 45.1 RU in the test with FcRn, -0.1 RU with FcγRIIA (human) [3] and -0.5 RU with FcγRIIIA (human). Besides, the THP-1 Binding (MFI) with FcγR on THP-1 cells came out at 169 MFI.
